This is an account of results in patent US20250152729A1 (CANCER RESEARCH TECHNOLOGY, published 2025).

The labels stand for the following.
T1: recombinant human SEMA4A AviHis10, biotinylated (human, UniProt Q9H3S1 33-683, biotin on the Avi tag (BirA))
T1 construct: The text says amino acids 33-683 of Q9H3S1 with C-terminal Avi tag and His10 tag; also called avi-SEMA4A-His10
T1 sequence: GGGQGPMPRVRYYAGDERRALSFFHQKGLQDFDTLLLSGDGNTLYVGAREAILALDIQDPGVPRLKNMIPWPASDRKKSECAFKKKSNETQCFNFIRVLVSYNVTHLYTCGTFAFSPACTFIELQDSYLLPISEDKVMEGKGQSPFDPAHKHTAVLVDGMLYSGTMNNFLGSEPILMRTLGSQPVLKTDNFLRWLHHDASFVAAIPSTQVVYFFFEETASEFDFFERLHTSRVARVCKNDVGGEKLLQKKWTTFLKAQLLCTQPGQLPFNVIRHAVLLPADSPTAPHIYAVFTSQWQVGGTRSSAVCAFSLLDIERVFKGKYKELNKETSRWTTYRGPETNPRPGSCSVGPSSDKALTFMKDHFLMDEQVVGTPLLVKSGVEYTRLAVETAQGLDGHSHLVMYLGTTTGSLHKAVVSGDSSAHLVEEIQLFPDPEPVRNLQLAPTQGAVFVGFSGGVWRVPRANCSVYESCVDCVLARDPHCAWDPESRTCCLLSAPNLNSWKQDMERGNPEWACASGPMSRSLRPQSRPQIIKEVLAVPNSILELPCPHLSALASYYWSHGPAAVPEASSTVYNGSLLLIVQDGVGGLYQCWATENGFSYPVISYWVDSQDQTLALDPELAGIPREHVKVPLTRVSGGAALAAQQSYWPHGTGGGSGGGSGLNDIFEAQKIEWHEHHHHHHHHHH

T2: recombinant cynomolgus SEMA4A AviHis10, biotinylated (cynomolgus, UniProt Q9H3S1 32-677 (human entry), biotin on the Avi tag (BirA))
T2 construct: The text says amino acids 32-679 of G7NV79 with C-terminal Avi tag and His10 tag; also called Cyno SEMA4A AviHis10; cynoSEMA4A
T2 chain: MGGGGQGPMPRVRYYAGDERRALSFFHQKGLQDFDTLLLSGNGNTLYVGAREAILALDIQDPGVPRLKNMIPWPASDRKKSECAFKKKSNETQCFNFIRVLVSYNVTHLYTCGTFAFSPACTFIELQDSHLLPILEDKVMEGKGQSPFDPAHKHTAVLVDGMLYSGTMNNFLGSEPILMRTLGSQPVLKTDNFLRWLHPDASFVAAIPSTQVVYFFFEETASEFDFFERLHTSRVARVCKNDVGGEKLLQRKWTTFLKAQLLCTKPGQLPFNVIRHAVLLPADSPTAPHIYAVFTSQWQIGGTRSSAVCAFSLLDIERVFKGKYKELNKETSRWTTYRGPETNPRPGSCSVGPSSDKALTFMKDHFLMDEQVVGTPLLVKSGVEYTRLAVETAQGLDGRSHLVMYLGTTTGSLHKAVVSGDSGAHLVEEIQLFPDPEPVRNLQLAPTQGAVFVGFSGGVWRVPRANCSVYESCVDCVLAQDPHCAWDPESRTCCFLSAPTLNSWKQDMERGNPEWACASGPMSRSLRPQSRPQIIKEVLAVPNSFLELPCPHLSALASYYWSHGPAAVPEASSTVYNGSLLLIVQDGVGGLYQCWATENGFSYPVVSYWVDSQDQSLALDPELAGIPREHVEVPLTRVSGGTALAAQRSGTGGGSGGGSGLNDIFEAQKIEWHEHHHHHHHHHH

B1: mouse 5E3 expressed as human IgG1 Alya (antibody, V domains shown)
VH: QVQLQQPGAELVMPGASVKMSCKASGYTFTDYWMHWVKQRPGQGLEWIGAIDTSDSYTSYNQKFKGKATLTVDESSSTAYMQLSSLTSEDSAVYYCARDYGNFYYYAMDYWGQGTSVTVSS
VL: QAVVTQESALTTSPGETVTLTCRSSTGAVTTSNYANWVQEKPDHLFTGLIGGTNNRAPGVPARFSGSLIGDKAALTITGAQTEDEAIYFCALWYSNHWVFGGGTKLTVL
notes: Mouse variable domains on human IgG1 Alya constant (pEU1.22; 239iCys and S442C, EU numbering); purified, unconjugated; also called 5E3 IgG1 Alya
B2: C0120918 human Alya IgG1 (antibody, V domains shown)
VH: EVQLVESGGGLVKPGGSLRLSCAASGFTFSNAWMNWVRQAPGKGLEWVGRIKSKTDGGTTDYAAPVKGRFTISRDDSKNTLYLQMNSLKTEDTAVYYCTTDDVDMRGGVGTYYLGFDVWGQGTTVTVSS
VL: SYELTQPPSVSVSPGQTARITCSGDALPKQYAYWYQQKPGQAPVLVIYKDSERPSGIPERFSGSSSGTTVTLTISGVQAEDEADYYCQSADSSGTWVFGGGTKVTVL
notes: Fully human, phage display derived; human IgG1 Alya constant (239iCys, S442C, EU); unconjugated
B3: C0120903 human Alya IgG1 (antibody, V domains shown)
VH: EVQLVQSGAEVKKPGSSMKVSCKASGGTFNSYTINWVRQAPGQGLEWVGGFIPIFGTADYAQKFHGRVAITADESMSTAYMELSSLRSEDTAVYYCARAPLGSEPFDYWGQGTMVTVSS
VL: SYVLTQPPSVSVAPGQTARITCGGNNIGSKSVHWYQQKPGQAPVLVVYDDSDRPSGIPERFSGSNSGNTATLTISRVEAGDEADYYCQVWDSSSDHLVFGGGTKLTVL
notes: as for B2
B4: C0120914 human Alya IgG1 (antibody, V domains shown)
VH: QVQLQESGPGLVKPSETLSLTCTVSGGSVSSGRYDWSWIRQPPGKGLEWIGHIYYTGITDYNPSLRSRVTISADKPKNQFSLKLNSVTAADTAVYYCARGPFFDPWGQGTMVTVSS
VL: QSVLTQPPSVSVAPGQTASLTCGANNIGSKSVQWYQQKPGQAPVLVVYDGSDRPSGIPDRFSGSSSENTATLTISRVEAGDEADYYCQLWDSVTDRPVFGGGTKVTVL
notes: as for B2
B5: C0120905 human Alya IgG1 (antibody, V domains shown)
VH: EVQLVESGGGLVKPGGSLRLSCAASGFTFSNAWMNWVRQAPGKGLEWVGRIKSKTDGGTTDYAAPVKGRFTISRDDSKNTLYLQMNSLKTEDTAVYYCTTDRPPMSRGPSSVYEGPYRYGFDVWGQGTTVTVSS
VL: NFMLTQPHSVSESPGKTVTISCTGSGGNIVDNFVQWHQQRPGSAPRTVIYEDDQRPSGVPDRFSASVDSSSNSGTLSISGLKTEDEADYYCQSYDGANRWVFGGGTKLTVL
notes: as for B2
B6: C0120917 human Alya IgG1 (antibody, V domains shown)
VH: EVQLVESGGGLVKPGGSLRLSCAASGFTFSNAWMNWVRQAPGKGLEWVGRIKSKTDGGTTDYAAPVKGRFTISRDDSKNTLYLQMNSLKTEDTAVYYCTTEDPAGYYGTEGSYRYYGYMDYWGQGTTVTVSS
VL: NFMLTQPHSVSESPGKTVTISCTASGDTLDNKYVNWYQVRPGSAPATLIFHYEERDSGVPDRFSGSFDASSNSASLTISGLQTADEADYFCQSYDSKRDNLVVFGGGTKVTVL
notes: as for B2
B7: C0120906 human Alya IgG1 (antibody, V domains shown)
VH: EVQLVQSGPEVKKPGASVKISCKASGYKLNDPGVHGVSWVRQAPGQGLEWMGWISTLNGDTRYAQKFQGRVTMATDSSTSTIYMDLRSLKSDDTALYYCARDDYTAIFDFWGRGTLVTVSS
VL: QSVLTQPPSVSVAPGQTASITCGGSNIGSQSVHWYQQKPGQAPVLVVYDDSDRPSGIPERFSGSKSGNTASLILSRVEAGDEADYYCQVWDSSTDHHVFGTGTKVTVL
notes: as for B2
B8: 5Hg1-5Lg1 human Alya IgG1 (antibody, V domains shown)
VH: QVQLVQSGAEVKKPGASVKVSCKASGYTFTDYWMHWVRQAPGQGLEWMGAIDTSDSYTSYNQKFKGRVTMTRDTSTSTVYMELSSLRSEDTAVYYCARDYGNFYYYAMDYWGQGTLVTVSS
VL: QAVVTQEPSLTVSPGGTVTLTCRSSTGAVTTSNYANWFQQKPGQAPRTLIYGTNNRAPWTPARFSGSLLGGKAALTLSGAQPEDEAEYYCALWYSNHWVFGGGTKLTVL
notes: Humanised 5E3; human IgG1 Alya constant (239iCys, S442C, EU), lambda light chain; purified, unconjugated
B9: 5Hg2-5Lg2 human Alya IgG1 (antibody, V domains shown)
VH: B8 VH with G44R, M70I, T76A, V79A
VL: B8 VL with S78L
notes: as for B8

Where a chain is given by its changes, count along the chain named. Names may count otherwise.

The first test addresses T1, recombinant human SEMA4A AviHis10, …. Put plainly: BLI (OctetRED), biotinylated SEMA4A on streptavidin tip, IgG as analyte, 1:1 model; KD(observed) IgG; human SEMA4A; IgG, not Fab. The method, then:
(§1) An Octet Kinetics buffer (PBS containing 0.01% (v/v) BSA and 0.002% (v/v) Tween20) is typically used as the diluent buffer for the analyte samples and as the flow buffer during the dissociation phase. The experimental data is recorded as shift in interference pattern (nm) over time, which is directly proportional to the optical thickness at the biosensor tip, which in turn is an approximate measure of the mass of analyte bound. The proprietary Octet Data Analysis software package can then be used to process data and fit binding models to the data sets. Returned association (ka, M-1 s-1) and dissociation (kd, s-1) rate constants allow calculation of dissociation (KD, M) affinity constants.
The affinity of binding between the analytes (humanised and phage display derived IgGs as human Alya IgG1s and Fabs) and human SEMA4A and cynomolgus SEMA4A, was estimated using assays in which the biotinylated SEMA4A antigen was captured on a streptavidin sensor tip. A fresh sensor tip was used for each measurement and no regeneration was used. A series of dilutions of the lead Fabs and human Alya IgG1s (3.25-240 nM) were individually placed in contact with the ligand surface for a sufficient amount of time to observe sensorgrams that could be fitted to an appropriate binding model with confidence (typically 5 minutes), followed by an appropriate length of dissociation time (typically 10 minutes). […]
For the molecule B1, the Kd was ≤ 1 nM.

The next test addresses T2, recombinant cynomolgus SEMA4A AviHis10, …. Put plainly: BLI (OctetRED), biotinylated SEMA4A on streptavidin tip, IgG as analyte, 1:1 model; KD(observed) IgG. The method, then: as §1
(§2) The affinity of binding between the analytes (humanised and phage display derived IgGs as human Alya IgG1s and Fabs) and human SEMA4A and cynomolgus SEMA4A, was estimated using assays in which the biotinylated SEMA4A antigen was captured on a streptavidin sensor tip. A fresh sensor tip was used for each measurement and no regeneration was used. A series of dilutions of the lead Fabs and human Alya IgG1s (3.25-240 nM) were individually placed in contact with the ligand surface for a sufficient amount of time to observe sensorgrams that could be fitted to an appropriate binding model with confidence (typically 5 minutes), followed by an appropriate length of dissociation time (typically 10 minutes). Blank reference (0 nM analyte) data were subtracted from each dataset to reduce the impact of any buffer artefacts or non-specific binding effects. A 1:1 binding model was then fitted simultaneously to the data from each analyte titration using the Octet Evaluation software (Table 8).
Turning to B2, the Kd was determined as 9 nM.

Regarding B3, the Kd was determined as 20 nM.

Take B1: the Kd was ≤ 1 nM.

Regarding B4, the Kd stood at 97 nM.

With B5, the Kd was found to be 9 nM.

B6: the dissociation constant (Kd) came to 6 nM.

B7: the Kd is 2 nM.

A further test addresses T1, recombinant human SEMA4A AviHis10, …. The test is described as above. As for the experimental part: as §1, §2
Turning to B2, the Kd stood at 9 nM.

With B3, the Kd was found to be 6 nM.

In the case of B4, the equilibrium dissociation constant (Kd) was found to be 21 nM.

As for B5, the Kd was 10 nM.

For the molecule B8, the Kd was ≤ 2 nM.

In the case of B9, the Kd is ≤ 2 nM.

In the case of B6, the Kd came to 14 nM.

Turning to B7, the Kd was determined as 11 nM.

What is called Kd is the free concentration of one partner at which half of the binding sites on the other are occupied at equilibrium, for simple one-to-one binding.
